Assay results reported in patent US20130288364, “ENGINEERED KINETOCHORES AND USES THEREOF” (Whitehead Institute for Biomedical Research, published 2013).

Columns and labels:
CENP-T/CENP-W complex = CENP-T/CENP-W complex (Homo sapiens, UniProt Q96BT3;Q5EE01 Q96BT3:1-561,Q5EE01:1-88); assay: EMSA; 10 mM Tris pH 7.9, 150 mM KCl, 1 mM EDTA, 4 mM DTT, room temperature; 500 ng protein, 50 ng probe; settings: tags: 6xHis-CENP-T (full length), untagged CENP-W, co-expressed from pST39 in bacteria; Gene ID 80152 / 387103; label: biotin
Protocol: (§1) In vitro DNA binding was assessed by Electro Mobility Shift Assay (EMSA). 500 ng of the indicated protein was incubated for 10 minutes at room temperature in binding buffer (10 mM Tris pH 7.9, 150 mM KCl, 1 mM EDTA, 4 mM DTT. 50 ng of a 20 bp biotinylated double stranded DNA probe […] corresponding to bp 21-40 of the alpha satellite DNA sequence was then added, and incubated for a further 20 minutes. Samples were then run on a 4% non denaturing arylamide gel, semi-dry transferred to nitrocellulose membrane, and blots processed using the Chemiluminescent nucleic acid detection system (Thermo) according to manufacturers instructions. Biotinylated DNA probe with detected with HRP-coupled streptavidin (Thermo).

CENP-T-ΔN/CENP-W complex = CENP-T-ΔN/CENP-W complex (Homo sapiens, UniProt Q96BT3;Q5EE01 Q96BT3:288-561,Q5EE01:1-88); assay: EMSA; retains DNA binding activity; settings: tags: 6xHis-CENP-T, untagged CENP-W; label: biotin
Protocol: as §1

Sequence of CENP-T-ΔN/CENP-W complex (Q96BT3 288-561, stated change not applied, chain 1 of 2): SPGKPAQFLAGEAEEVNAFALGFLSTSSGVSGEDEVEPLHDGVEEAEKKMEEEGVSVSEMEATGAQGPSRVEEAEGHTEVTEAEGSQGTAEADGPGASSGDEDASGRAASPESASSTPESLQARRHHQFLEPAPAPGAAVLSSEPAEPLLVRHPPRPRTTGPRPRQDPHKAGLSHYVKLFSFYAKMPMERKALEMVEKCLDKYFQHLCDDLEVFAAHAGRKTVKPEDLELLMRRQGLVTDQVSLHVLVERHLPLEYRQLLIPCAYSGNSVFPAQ
Sequence of CENP-T-ΔN/CENP-W complex (Q5EE01 whole entry, stated change not applied, chain 2 of 2): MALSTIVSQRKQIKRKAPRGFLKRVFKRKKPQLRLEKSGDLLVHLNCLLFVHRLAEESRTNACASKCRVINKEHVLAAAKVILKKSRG
Sequence of CENP-T/CENP-W complex (Q96BT3 whole entry, chain 1 of 2): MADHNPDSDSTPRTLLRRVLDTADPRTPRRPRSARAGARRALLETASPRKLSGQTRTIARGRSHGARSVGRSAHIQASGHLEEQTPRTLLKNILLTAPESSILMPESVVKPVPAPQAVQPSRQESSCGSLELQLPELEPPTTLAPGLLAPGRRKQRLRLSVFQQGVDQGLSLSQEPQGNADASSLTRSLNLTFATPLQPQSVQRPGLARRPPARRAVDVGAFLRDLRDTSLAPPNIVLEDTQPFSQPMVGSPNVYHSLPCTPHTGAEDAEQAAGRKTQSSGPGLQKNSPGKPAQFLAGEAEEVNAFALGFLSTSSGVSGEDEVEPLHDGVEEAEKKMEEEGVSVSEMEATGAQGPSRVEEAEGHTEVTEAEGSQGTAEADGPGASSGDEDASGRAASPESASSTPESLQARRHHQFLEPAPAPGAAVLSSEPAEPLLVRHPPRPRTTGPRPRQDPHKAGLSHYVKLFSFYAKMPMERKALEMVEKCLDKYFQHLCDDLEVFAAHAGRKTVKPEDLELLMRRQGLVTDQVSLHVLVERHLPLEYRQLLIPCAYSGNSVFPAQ
Sequence of CENP-T/CENP-W complex (Q5EE01 whole entry, chain 2 of 2): as the sequence (Q5EE01 whole entry, stated change not applied, chain 2 of 2) above

B1: alpha-satellite 20 bp probe (bp 21-40) (dsDNA)
DNA 1: CCTTTGAGGCCTTCGTTGGA
DNA 2: TCCAACGAAGGCCTCAAAGG
binding result (CENP-T/CENP-W complex): binds
binding result (CENP-T-ΔN/CENP-W complex): binds
